“Also recorded” adds a separate entry of the source. Starred links: 1 amine or outer side, 2 acyl side, 3 side chain; linkers in the order of their positions; H or OH if unused. Positions of bridges follow the written chain, without caps; N, C: chain ends. Non-standard residues stand in square brackets, D forms with d. Chains are numbered I, II in the order given. No end group written: not given here. NH(CH2CH2O)6CH2CO = O=C(COCCOCCOCCOCCOCCOCCN[*:1])[*:2]; Dap = NC[C@H](N)C(=O)O
B1: SEQ ID NO 1 (peptide)
peptide: Ac-YRHNSYEASAFWCGSGSGS
modifications: thioether (positions not given here); not fully specified (residue 1, bridges)
notes: In the selection it stood as a peptide-mRNA/cDNA conjugate joined through a puromycin linker
B2: SEQ ID NO 6 (peptide)
peptide: Ac-YRHNSYEASAFCCGSGSGS
modifications: thioether (positions not given here); not fully specified (residue 1, bridges)
notes: as for B1
B3: SEQ ID NO 2 (peptide)
peptide: Ac-YRHNSYKASAFWCGSGSGS
modifications: thioether (positions not given here); not fully specified (residue 1, bridges)
notes: as for B1
B4: SEQ ID NO 5 (peptide)
peptide: Ac-YRHNSYEASTFWCGSGSGS
modifications: thioether (positions not given here); not fully specified (residue 1, bridges)
notes: as for B1
B5: SEQ ID NO 4 (peptide)
peptide: Ac-YRHDSYEASAFWCGSGSGS
modifications: thioether (positions not given here); not fully specified (residue 1, bridges)
notes: as for B1
B6: SEQ ID NO 3 (peptide)
peptide: Ac-YRHSSYEASAFWCGSGSGS
modifications: thioether (positions not given here); not fully specified (residue 1, bridges)
notes: as for B1
B7: SEQ ID NO 10 (peptide)
peptide: Ac-YRFWQTPRFRLCGSGSGS
modifications: thioether (positions not given here); not fully specified (residue 1, bridges)
notes: as for B1
B8: SEQ ID NO 11 (peptide)
peptide: Ac-YKYKFWAYIPTNCGSGSGS
modifications: thioether (positions not given here); not fully specified (residue 1, bridges)
notes: as for B1
B9: SEQ ID NO 13 (peptide)
peptide: Ac-YRLHQWINTFRCGSGSGS
modifications: thioether (positions not given here); not fully specified (residue 1, bridges)
notes: as for B1
B10: SEQ ID NO 12 (peptide)
peptide: Ac-YRIHPWITTYRCGSGSGS
modifications: thioether (positions not given here); not fully specified (residue 1, bridges)
notes: as for B1
B11: SEQ ID NO 8 (peptide)
peptide: Ac-YLQPKFKFWCGSGSGS
modifications: thioether (positions not given here); not fully specified (residue 1, bridges)
notes: as for B1
B12: SEQ ID NO 9 (peptide)
peptide: Ac-YAHEGYKNSAFWCGSGSGS
modifications: thioether (positions not given here); not fully specified (residue 1, bridges)
notes: as for B1
B13: SEQ ID NO 7 (peptide)
peptide: Ac-YLRPRYKFWCGSGSGS
modifications: thioether (positions not given here); not fully specified (residue 1, bridges)
notes: as for B1

How the values were obtained:
[1] = tested on: Akt; assay: Western blot of phosphorylated Akt (S473) in primary hippocampal neurons; assay type: cell-based, mouse; settings: ANA-12 100 µM added 30 minutes before 1 nM DiTrbL3; p<0.05
Protocol: (§1) After washing with 0.1 M PBS twice, cells were lysed in a radio-immunoprecipitation assay (RIPA) buffer containing 50 mM Tris-HCI (pH 7.4), 150 mM NaCl, 2 mM EDTA, 1% Nonidet P-40, 0.5% Na-deoxycholate, 0.1% SDS, 50 mM NaF, 0.2 mM Na3VO4, 10 µg/mL aprotinin, 10 µg/mL leupeptin, and 1 mM phenylmethylsulfonyl fluoride on ice for 30 minutes. After ultrasonic treatment and centrifugation at 20,000 ×g for 30 minutes, the supernatant was subjected to SDS-PAGE. Protein amount was quantified using Bicinchoninic Acid Kit (BCA-1, Sigma).
(§2) The cell lysate (protein amount: 20 µg in P-TrkB, 10 µg in TrkB, and 5 µg in Akt and Erk) was separated using 8% polyacrylamide gel and transferred to a polyvinylidene difluoride membrane (Merck Millipore, Massachusetts, USA). […]
(§3) Finally, after the resulting membrane was washed with TBST, an immune-positive bands were detected by a chemiluminescence method using a Luminata Crescendo HPR substrate (Merck Millipore). The relative phosphorylation level of each kinase was calculated as a ratio of phosphorylated kinase/all kinases.

[2] = tested on: 40 RTKs (receptor tyrosine kinases); assay: Phospho-RTK array evaluation (off-target activity); assay type: cell-based, mouse; settings: ANA-12 100 µM added 30 minutes before DiTrbL3 1 nM
Protocol: Comprehensive study of the phosphorylated tyrosine kinase receptor was conducted using a phospho-RTK array in accordance with the manufacturer’s protocol (Proteome Profiler mouse Phospho-RTK Array Kit, ARY014, R&D Systems). The phosphorylation level was evaluated by pixel density and quantified by Image J Software.

[3] = tested on: Erk½; assay: Western blot of phosphorylated Erk½ in primary hippocampal neurons; assay type: cell-based, mouse; settings: ANA-12 100 µM added 30 minutes before 1 nM DiTrbL3; p<0.01
Protocol: as §1, §2, §3

[4] = molecular target: T1, extracellular domain of hTrkC (Homo sapiens, UniProt Q16288); assay: SPR binding kinetics (Biacore T200), hTrkC; settings: Homodimer (peptide complex), 1:1 binding model
T1 construct: the extracellular domain of hTrkA, hTrkC, and hTrkB
T1 sequence (Q16288 32-429 limits assumed): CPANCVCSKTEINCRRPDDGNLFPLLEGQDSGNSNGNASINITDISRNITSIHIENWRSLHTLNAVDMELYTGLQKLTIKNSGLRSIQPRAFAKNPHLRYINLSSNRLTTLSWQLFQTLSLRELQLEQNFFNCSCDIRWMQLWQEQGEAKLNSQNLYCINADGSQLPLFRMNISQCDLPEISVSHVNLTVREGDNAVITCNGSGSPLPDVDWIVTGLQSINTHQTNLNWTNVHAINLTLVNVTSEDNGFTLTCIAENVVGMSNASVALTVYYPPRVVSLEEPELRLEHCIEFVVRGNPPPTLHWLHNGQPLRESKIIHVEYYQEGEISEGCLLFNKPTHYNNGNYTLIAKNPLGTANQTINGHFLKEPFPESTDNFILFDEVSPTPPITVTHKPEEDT
Protocol: (§4) With respect to the binding kinetics (binding affinity (dissociation constant) KD) of the cyclic peptides towards the extracellular domain of hTrkA, hTrkC, and hTrkB (which will hereinafter be called “hTrkA-C proteins”, collectively) immobilized on a sensor chip via a His6-tag, quantitative measurements making use of surface plasmon resonance (SPR) were carried out to evaluate the binding intensity and selectivity of the cyclic peptide to hTrkB, compared with that to hTrkA and hTrkC.
(§5) The binding kinetics of each peptide towards the hTrkA-C proteins were determined using Biacore T200 (GE Healthcare). The buffer used was HBS-P+ (10 mM HEPES, 150 mM NaCl, and 0.05 vol% surfactant P20, pH 7.4) containing 0.1 vol% DMSO and 1 mM b-dodecyl-maltoside. 100 nM hTrkA-C proteins were immobilized on a Ni^2+ treated NTA chip in accordance with the manufacturer’s instructions (baseline response 1000 to 3000 refraction units). Peptides were injected as an analyte at a flow rate of […] and binding kinetics was modelled using a 1:1 binding model.

[5] = molecular target: extracellular domain of hTrkA (Homo sapiens, UniProt P04629); assay: SPR binding kinetics (Biacore T200), hTrkA; set-up: the extracellular domain of hTrkA, hTrkC, and hTrkB; settings: Homodimer (peptide complex), 1:1 binding model
Sequence of extracellular domain of hTrkA (P04629 33-423 limits assumed): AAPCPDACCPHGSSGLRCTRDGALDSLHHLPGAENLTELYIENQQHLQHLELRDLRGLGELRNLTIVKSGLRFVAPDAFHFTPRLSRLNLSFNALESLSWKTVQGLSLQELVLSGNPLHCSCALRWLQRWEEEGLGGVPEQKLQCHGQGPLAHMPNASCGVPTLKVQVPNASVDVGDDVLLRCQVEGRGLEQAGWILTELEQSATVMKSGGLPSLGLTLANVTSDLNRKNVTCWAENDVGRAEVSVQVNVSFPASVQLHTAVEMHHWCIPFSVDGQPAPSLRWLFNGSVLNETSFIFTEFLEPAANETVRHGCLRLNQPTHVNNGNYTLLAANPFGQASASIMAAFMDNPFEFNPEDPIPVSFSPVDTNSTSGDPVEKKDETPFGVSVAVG
Protocol: as §4, §5

[6] = molecular target: T2, extracellular domain of hTrkB (human, UniProt Q16620 32-430); assay: RaPID affinity selection, 5 rounds, on beads carrying TrkB extracellular domain; sequencing
T2 construct: extracellular domain; Immobilised on a Ni2+-treated NTA sensor chip through the His6-tag for SPR; fixed on His pulldown Dynabeads at 200 nM for the RaPID selection; also called human TrkB; TrkB extracellular domain; not shown: His6-tag
T2 sequence (Q16620 32-430): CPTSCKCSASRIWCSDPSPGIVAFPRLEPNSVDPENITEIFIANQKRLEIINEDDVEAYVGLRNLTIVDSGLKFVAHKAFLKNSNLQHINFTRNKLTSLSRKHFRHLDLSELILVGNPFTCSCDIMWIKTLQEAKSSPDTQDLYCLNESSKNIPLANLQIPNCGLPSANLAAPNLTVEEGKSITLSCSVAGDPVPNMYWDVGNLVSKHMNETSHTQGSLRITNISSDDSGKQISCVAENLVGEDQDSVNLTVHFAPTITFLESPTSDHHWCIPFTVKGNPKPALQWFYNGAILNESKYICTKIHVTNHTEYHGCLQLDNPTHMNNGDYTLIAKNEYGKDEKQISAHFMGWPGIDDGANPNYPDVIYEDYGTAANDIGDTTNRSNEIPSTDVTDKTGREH
Protocol: Next, the peptide-mRNA/cDNA conjugate libraries thus obtained were subjected to affinity selection. First, as control selection, the peptide-mRNA/cDNA conjugate libraries were passed three times through His pulldown Dynabeads (Life Technologies) (each passage for 10 minutes under the condition of 4° C.). The above process is called “pre-clearance” or negative selection and is performed to remove undesired binding to beads. […] The process is called “positive selection”.
By heating at 95° C. for 5 minutes, the cDNAs were eluted from the beads and a portion of the eluted cDNAs was evaluated by quantitative PCR using Sybr Green I and thermal cycler (LightCycler (Roche)). The remaining portion of the cDNAs was amplified by PCR and used for the transcription of the mRNA library used for affinity selection in the next round.
One round consisted of preparation of a library, pre-clearance, and positive selection, and the round was performed 5 times. […] The collected cDNAs were amplified by PCR, purified using a column (NucleoSpin (Machery-Nagel)), and sequenced using a high through-put sequencer (MiSeq (Illumina)). Data analysis was performed using a software (CLC Sequence Viewer 7 (Qiagen)).

Row | Molecule | binding result [6] | other results
1 | O=C(Nc1ccccc1C(=O)NC1CCCCNC1=O)c1cc2ccccc2s1 (stereo not drawn) [ANA-12, reference compound] | – | phosphorylation of Akt induced by DiTrbL3 [1]: the phosphorylation activity decreased; also recorded: suppressed; TrkB phosphorylation signal induced by DiTrbL3, RTK array and densitometric analysis [2]: reduction in TrkB phosphorylation signal; phosphorylation of Erk½ induced by DiTrbL3 [3]: the phosphorylation activity decreased; also recorded: suppressed
2 | I: {CH2CO}-YRHNSYEASAFWCGSGSGS[NH(CH2CH2O)6CH2CO][Dap]-NH2 / II: {CH2CO}-YRHNSYEASAFWCGSGSGS[NH(CH2CH2O)6CH2CO] (amide I:21-II:C; thioether I:N-I:13, II:N-II:13) [DiTrbL1] | – | binding affinity KD, TrkC [4]: N.B.; binding affinity KD, TrkA [5]: N.B.
3 | B1 | binds | –
4 | B2 | binds | –
5 | B3 | binds | –
6 | B4 | binds | –
7 | B5 | binds | –
8 | B6 | binds | –
9 | B7 | binds | –
10 | B8 | binds | –
11 | B9 | binds | –
12 | B10 | binds | –
13 | B11 | binds | –
14 | B12 | binds | –
15 | B13 | binds | –

Source: patent US20230312651A1, “Cyclic Peptide, Peptide Complex, and Drug Composition Containing Said Cyclic Peptide and/or Said Peptide Complex” (The University of Tokyo, priority 2020, published 2023)
